Measured values as given in patent US20160375112A1 (priority 2013, published 2016).

Settings: human, in vivo

botulinum toxin
botulinum toxin-related reactions (hypersensitivity, after injection and before ALDARA): No botulinum toxin-related reactions
